B1: L-asparaginase, Q8TZE8 (parent)
chain: MKILLIGMGGTIASVKGENGYEASLSVKEVLDIAGIKDCEDCDFLDLKNVDSTLIQPEDWVDLAETLYKNVKKYDGIIVTHGTDTLAYTSSMISFMLRNPPIPIVFTGSMIPATEENSDAPLNLQTAIKFATSGIRGVYVAFNGKVMLGVRTSKVRTMSRDAFESINYPIIAELRGEDLVVNFIPKFNNGEVTLDLRHDPKVLVIKLIPGLSGDIFRAAVELGYRGIVIEGYGAGGIPYRGSDLLQTIEELSKEIPIVMTTQAMYDGVDLTRYKVGRLALRAGVIPAGDMTKEATVTKLMWILGHTNNVEEIKVLMRKNLVGELRD

Variants of: B1
Settings: Pyrococcus furiosus (strain ATCC 43587 / DSM 3638 / JCM 8422 / Vc1); pH 8; 60 °C; GdnHCl; Fluorescence; Tris; NaCl; transition: 2; reversible: yes; structure 4Q0M; whole UniProt chain shown

Variant	ddG of mutation (higher = less stable) [kcal/mol]	denaturant m value [kcal/mol/M]	denaturant midpoint (higher = more stable) [M]	unfolding free energy [kcal/mol]
W301F	-3.98	6.21	3.18	19.7
W60F	–	4.23	2.82	11.9
